# US20190218268A1 (INDIANA UNIVERSITY RESEARCH AND TECHNOLOGY, published 2019)
# Square brackets hold non-standard residues; d marks the D form. Ends that are not written are not given here. 3Pal = N[C@@H](Cc1cccnc1)C(=O)O; 4Pal = N[C@@H](Cc1ccncc1)C(=O)O; Aib = CC(C)(N)C(=O)O
# Molecular target: human GLP-1 receptor (human, UniProt P43220 24-463)
# Test: cell-based or functional assay
row,Binder,hGLP-1R EC50 (pM)
1,"HSQGTFTSDYSKYLD[Aib]RRA[dQ]DFVQWLMDE [Glucagon analog Aib16, q20, D28, E29 (SEQ ID NO: 981)]",> 10000
2,"HSQGTFTSDYSKYLD[Aib]RRA[dQ]DFVQWLMDT [Glucagon analog Aib16, q20, D28 (SEQ ID NO: 980)]",7480
3,"HSQGTFTSDXSKYLDXRRAXDFVQWLMNT (3-Pal at position 10; Aib at position 16; dGln at position 20) [Glucagon analog 3-Pal10, Aib16, q20 (SEQ ID NO: 971)]",> 10000

# Molecular target: human glucagon receptor (human, UniProt P47871 26-477)
# Test: cell-based or functional assay
# Chain of human glucagon receptor (P47871 26-477): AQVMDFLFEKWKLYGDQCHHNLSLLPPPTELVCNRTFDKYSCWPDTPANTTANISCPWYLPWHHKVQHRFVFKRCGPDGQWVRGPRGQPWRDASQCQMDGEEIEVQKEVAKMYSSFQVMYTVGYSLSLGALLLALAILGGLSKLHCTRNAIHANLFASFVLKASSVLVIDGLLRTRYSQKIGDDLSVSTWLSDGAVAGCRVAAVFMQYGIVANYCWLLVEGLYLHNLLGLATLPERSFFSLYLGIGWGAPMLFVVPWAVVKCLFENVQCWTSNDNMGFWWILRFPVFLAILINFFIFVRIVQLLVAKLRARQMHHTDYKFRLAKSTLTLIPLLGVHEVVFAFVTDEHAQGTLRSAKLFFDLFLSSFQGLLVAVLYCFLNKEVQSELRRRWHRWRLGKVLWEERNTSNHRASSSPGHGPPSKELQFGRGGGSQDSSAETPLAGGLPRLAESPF
row,Binder,hGcgR EC50 (pM)
1,"HSQGTFTSDYSKYLD[Aib]RRA[dQ]DFVQWLMDE [Glucagon analog Aib16, q20, D28, E29 (SEQ ID NO: 981)]",18
2,"HSQGTFTSDYSKYLD[Aib]RRA[dQ]DFVQWLMDT [Glucagon analog Aib16, q20, D28 (SEQ ID NO: 980)]",33
3,"HSQGTFTSDXSKYLDXRRAXDFVQWLMNT (3-Pal at position 10; Aib at position 16; dGln at position 20) [Glucagon analog 3-Pal10, Aib16, q20 (SEQ ID NO: 971)]",86

# Molecular target: glucagon receptor (co-transfected in HEK293 cells with a CRE-luciferase reporter)
# Test: cell-based or functional assay
Binder,% bioactivity of GCG [%],"EC50 [nM] (SDV), luciferase-based glucagon receptor cAMP reporter assay"
HSQGTFTSD[4Pal]SK[4Pal]LD[Aib]RRAQDFVQWLMNT [Glucagon analog 8],66,0.0309
HSQGTFTSD[3Pal]SKYLD[Aib]RRAQDFVQWLMNT [Glucagon analog 4],76,0.0268
HSQGT[3Pal]TSD[3Pal]SK[3Pal]LD[Aib]RRAQDFVQWLMNT [Glucagon analog 9],28,0.0714
HSQGT[3Pal]TSD[3Pal]SK[3Pal]LD[Aib]RRAQD[3Pal]VQWLMNT [Glucagon analog 11],1,2.33
HSQGTFTSDYSK[4Pal]LD[Aib]RRAQDFVQWLMNT [Glucagon analog 6],60,0.0339
HSQGT[4Pal]TSD[4Pal]SK[4Pal]LD[Aib]RRAQDFVQWLMNT [Glucagon analog 10],24,0.0843
HSQGTFTSDYSK[3Pal]LD[Aib]RRAQDFVQWLMNT [Glucagon analog 5],54,0.0379
HSQGTFTSD[3Pal]SK[3Pal]LD[Aib]RRAQDFVQWLMNT [Glucagon analog 7],57,0.0359
